System: poly-L-lysine (PLL, 30-70 kDa, Sigma P2636)
Assay: EMSA
Details: 10 mM Tris pH 7.5, 100 mM KCl, 5% glycerol, 30 min at room temperature

| Sequence | Kd |
| --- | --- |
| TTAGAATTAGAATTAGAATTAGAA [dTERRA_M2 [TTAGAA]4] | 34 nM |
| UUAGAAUUAGAAUUAGAAUUAGAA [rTERRA_M2 [UUAGAA]4] | 7.4 nM |

Source: publication doi:10.1101/2025.06.23.656378
